Biological target: T1, nine-person peanut-specific IgE antibody pool
T1 construct: polyclonal human serum IgE; also called pooled serum; peanut-positive serum pool
Assay: competitive ELISA inhibition, pooled serum IgE on coated crude peanut

B1: Ara h 1 (purified from peanut) (other)
chain: KSSPYQKKTENPCAQRCLQSCQQEPDDLKQKACESRCTKLEYDPRCVYDPRGHTGTTNQRSPPGERTRGRQPGDYDDDRRQPRREEGGRWGPAGPREREREEDWRQPREDWRRPSHQQPRKIRPEGREGEQEWGTPGSHVREETSRNNPFYFPSRRFSTRYGNQNGRIRVLQRFDQRSRQFQNLQNHRIVQIEAKPNTLVLPKHADADNILVIQQGQATVTVANGNNRKSFNLDEGHALRIPSGFISYILNRHDNQNLRVAKISMPVNTPGQFEDFFPASSRDQSSYLQGFSRNTLEAAFNAEFNEIRRVLLEENAGGEQEERGQRRWSTRSSENNEGVIVKVSKEHVEELTKHAKSVSKKGSEEEGDITNPINLREGEPDLSNNFGKLFEVKPDKKNPQLQDLDMMLTCVEIKEGALMLPHFNSKAMVIVVVNKGTGNLELVAVRKEQQQRGRREEEEDEDEEEEGSNREVRRYTARLKEGDVFIMPAAHPVAINASSELHLLGFGINAENNHRIFLAGDKDNVIDQIEKQAKDLAFPGSGEQVEKLIKNQKESHFVSARPQSQSQSPSSPEKESPEKEDQEEENQGGKGPLLSILKAFN
modifications: glycoprotein (PAS positive); fluorescein-labelled tracer in Example 6
notes: Native allergen from peanut extract; Forms trimers and hexamers
- IC50: 5.5 ng/mL

From US20120283421A1 (published 2012)
